We go through one molecule from PMC5383250, “Functional studies of E. faecalis RNase J2 and its role in virulence and fitness” (PLoS ONE, 2017).

The assay deals with T1, E. faecalis RNase J2 (Enterococcus faecalis (strain OG1RF), UniProt Q836D0 1-562).
T1 construct: RNase J2 of Enterococcus faecalis, product of rnjB (ef1185); 1689 bp fragment PCR amplified from the OG1RF genome with primers 1185NdeF (begins at the ATG) and 1185XhoR (ends at the stop codon), in vector pQE30; recombinant protein M.W. 64.2 kDa; Vector pQE30; also called wild-type RNase J2; rnjB gene product; source: E. coli BL21, purified (Ni-NTA agarose)
T1 sequence (looked up): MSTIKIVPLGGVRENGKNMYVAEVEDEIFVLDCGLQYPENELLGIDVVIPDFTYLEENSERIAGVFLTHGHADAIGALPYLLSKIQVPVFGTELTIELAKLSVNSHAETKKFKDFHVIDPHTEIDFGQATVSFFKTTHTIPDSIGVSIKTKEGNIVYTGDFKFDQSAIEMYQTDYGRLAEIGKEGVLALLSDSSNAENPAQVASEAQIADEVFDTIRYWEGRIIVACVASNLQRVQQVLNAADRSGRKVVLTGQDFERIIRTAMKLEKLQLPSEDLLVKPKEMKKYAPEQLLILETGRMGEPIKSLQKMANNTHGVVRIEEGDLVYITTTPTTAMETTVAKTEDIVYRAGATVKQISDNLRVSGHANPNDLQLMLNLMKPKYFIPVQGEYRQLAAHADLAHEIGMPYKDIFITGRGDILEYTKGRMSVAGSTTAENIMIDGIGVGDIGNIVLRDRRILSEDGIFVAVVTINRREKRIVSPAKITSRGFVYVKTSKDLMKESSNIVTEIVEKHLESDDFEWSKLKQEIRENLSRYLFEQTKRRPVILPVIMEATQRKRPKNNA
Kind of assay: SPR; Biacore T100; E. faecalis RNase J1 immobilized on a CM5 sensor surface; J2 proteins 400 to 50 nM in duplicate; fitted to the 1:1 binding model. The conditions noted are these: both partners purified. (In SPR one partner is held on a chip, and binding of the other changes the refractive index at the surface.)

B1: E. faecalis RNase J1 (enzyme)
chain: not shown
notes: recombinant protein M.W. 62.6 kDa; also called rnjA gene product; ef2924; source: E. coli BL21, purified (Ni-NTA agarose)
Consider B1, for which binding was put at a Kd of 74 nM.
